Laboratory results taken from patent publication US20240398942A1, “USE OF ANTI-CD40 ANTIBODY” (CHIA TAI TIANQING PHARMACEUTICAL GROUP CO., LTD., priority 2021, published 2024).

Key:
[1] = Protein thermal shift assay (GloMelt); type: physicochemical; conditions: 25-99 °C melt curve
Procedure: A thermal stability assay was also conducted on humanized antibody huC1H1-V2. Tm (melting temperature) was determined by protein thermal shift assay using the GloMelt™ thermal shift protein stability kit (Biotium, Cat. No. 33022-T). Briefly, the GloMelt™ dye was thawed to room temperature. The vial containing the dye was vortexed and centrifuged. Then, 5 μL of the 200× dye solution was added to 95 μL of PBS to prepare a 10× dye solution. 2 μL of the 10× dye solution and 10 μg of the humanized antibody were added to the reaction system, and PBS was added to bring the total reaction volume to 20 μL. The centrifuge tubes containing the dye and the antibodies were centrifuged briefly and placed in a real-time PCR thermal cycler (Roche, LightCycler 480 II) in which the parameters of the Melt Curve program are shown in Table 4.

[2] = test system: human B-cell lymphoma Ramos cells; test: Efficacy of anti-CD40 antibody and anlotinib, Ramos subcutaneous xenograft mouse model; type: in vivo
Procedure: Human B-cell lymphoma Ramos cells (purchased from the Cell Bank of the Chinese Academy of Sciences) were cultured in an RPMI1640 medium containing 10% of fetal bovine serum and penicillin-streptomycin. The cells were inoculated in a 37° C./5% CO2 incubator until the logarithmic growth phase and collected for grafting.
The mice used in this study were NOD-Scid mice (purchased from Shanghai Lingchang Biotechnology Co., Ltd.) aged about 6 weeks and bred in specific pathogen-free conditions in 12/12-hour light/dark cycles. The health status of the animals was monitored daily.
Each mouse was inoculated subcutaneously with 1×10^7 Ramos cells. When the tumor grew to 80-100 mm^3, the mice were divided into groups of 10 according to the tumor volume. The administration regimen is shown in Table 10, with the first dosing day designated as DO. Antibody huC1H1-V2 and IgG2 (Biointron, Cat. No. B107803) were both formulated to desired concentrations with normal saline, and anlotinib dihydrochloride was formulated at desired concentrations with distilled water. At the end of study (D14), the animals were sacrificed by CO2 anesthesia and dissected to give the tumors. The tumors were photographed.
The tumor diameters were measured twice weekly with a vernier caliper. Tumor volume (V)=½×a×b^2, wherein a and b denote length and width, respectively; T/C (%)=(T−T0)/(C−C0)×100, wherein T and C refer to the tumor volumes of the treatment group and the IgG2 control group on day 14, respectively, and TO and C0 refer to the tumor volumes of the treatment group and IgG2 control group on day 0, respectively; the tumor growth inhibition % (TGI %)=100−T/C (%). When the tumor regressed, the tumor growth inhibition % (TGI %)=100−(T−T0)/T0×100. If the tumor volume was smaller than the initial volume, i.e., T<T0 or C<C0, the outcome was defined as partial regression (PR); if the tumors completely disappeared, i.e., the outcome was defined as complete regression (CR).

B1: huC1H1-V2: humanized C1H1 anti-CD40 antibody, VH SEQ ID NO: 20 X1=S, VL SEQ ID NO: 24 X1=K X2=F, human IgG2/κ (antibody, V domains shown)
VH: EVQLVESGGGLVKPGGSLRLSCAASGFTFSNYGISWVRQAPGKGLEWVXSISSGGDNTYYPDNVKGRFTISRDNAKNSLYLQMNSLRAEDTAVYYCARAGEKAMDYWGQGTLVTVSS
VL: EIVLTQSPATLSLSPGERATLSCRASQTINNNLHWYQQKPGQAPRLLIXYASQSISGIPARFSGSGSGTDFTLTISSLEPEDFAVYXCQQFSSWPLTFGGGTKVEIK
modifications: not fully specified; variable positions X1=S; VL X1=K X2=F; IgG2/kappa constant; VH of huC1H1-V1 to huC1H1-V4; VARIANT 49 X can be A or S; VL of huC1H1-V1 to huC1H1-V4; VARIANT 49 X can be K or Y; VARIANT 87 X can be F or Y
Tm (melting temperature) [1]: 70 °C
Mean tumor volume (mean ± SD) D 0 ([2]; baseline, huC1H1-V2 0.5 mg/kg i.p. once every 2 days × 8, anlotinib dihydrochloride 1 mg/kg intragastric daily × 15): 89.3 ± 0.8 mm^3
Mean tumor volume (mean ± SD) D 14 ([2]; huC1H1-V2 0.5 mg/kg i.p. once every 2 days × 8, anlotinib dihydrochloride 1 mg/kg intragastric daily × 15): 1546.7 ± 198.5 mm^3
TGI D 14 (tumor growth inhibition rate) ([2]; huC1H1-V2 0.5 mg/kg i.p., anlotinib dihydrochloride 1 mg/kg intragastric): 58%
Tolerability (symptoms such as weight loss) ([2]; huC1H1-V2 0.5 mg/kg i.p., anlotinib dihydrochloride 1 mg/kg intragastric, tumor-bearing mice): well tolerated
T/C D 14 ([2]; vs IgG2 group, huC1H1-V2 0.5 mg/kg i.p., anlotinib dihydrochloride 1 mg/kg intragastric): 42%
